Patent US9586995B2, “Compositions and methods of use for (pro)renin receptor” (University of Utah, priority 2012, dated 2017)
Blank lines part the entries; values can stand above or below the molecule they belong to.

Legend:
[1] = test system: ENaC; assay: ENaC activity (Ieq, amiloride-sensitive current) in mpkCCD cells; format: cell-based; details: for acute activation of ENaC by prorenin / second (chronic) phase of prorenin-increased sodium transport / ENaC activity: prorenin 10 nM; for acute activation of ENaC by prorenin: PRO20 1.5 μM, losartan 1.0 μM, apocynin 1 mM, eplerenone 10 mg/L; for Ieq: 10 nM for 5 min, control group 1.17+0.05; for second (chronic) phase of prorenin-increased sodium transport / ENaC activity: 6 h to 24 h
Protocol: FIGS. 32A-H show the role of PRR in the acute regulation of ENaC activity in cultured CD cells. Confluent mpkCCD cells grown on Transwell membrane were pretreated for 30 min with PRO20 (1.5 μM), losartan (1.0 μM), apocynin (1 mM), or eplerenone (10 mg/L) and then treated with AngII (500 nM) or prorenin (10 nM). Ieq was measured by using EVOM and amiloride-sensitive Ieq was determined at the end of experiments. (A) Time course of Ieq changes in control, AngII, and AngII+PRO20 groups. (B) Amiloride-sensitive Ieq measured at 5 min for experiments in (A). (C) Time course of Ieq changes in control, prorenin, and prorenin+PRO20 groups. (D) Amiloride-sensitive Ieq measured at 5 min for experiments in (C). (E) Time course of Ieq changes in control, prorenin, and prorenin+losartan groups. (F) Amiloride-sensitive Ieq measured at 5 min for experiments in (E). (G) Amiloride-sensitive Ieq measured at 5 min in control, prorenin, and prorenin+apocynin groups. (H) Amiloride-sensitive Ieq measured at 5 min in control, prorenin, and prorenin+eplerenone groups. N=6-12 per group. Data are means±SE.
FIGS. 33A-D show the role of PRR in chronic regulation of ENaC by prorenin in cultured CD cells. (A) Time course of Ieq changes in control, prorenin, prorenin+PRO20, and prorenin+losartan groups over 24 h in mpkCCD cells. (B) Time course of changes in Ieq during 24-h aldosterone treatment in mpkCCD cells. (C) Amiloride-sensitive Ieq in mpkCCD cells after exposure for 24 h to 10 nM prorenin in presence or absence of eplerenone. (D) Medium aldosterone concentration in primary rat IMCD cells exposed for 24 h to 10 nM prorenin alone or in combination with 1.5 μM PRO20 or 1.0 μM losartan.
Electrophysiology experiments were performed on the immortalized mpkCCD cells once the cell monolayers reached confluence. The transepithelial voltage (Vte) and resistance (Rte) across cell monolayers were measured with an epithelial volt-ohmmeter (World Precision Instruments). The transepithelial current was calculated according to Ohm's law, Ite=Vte/Rte, and normalized by the surface area of the insert. AngII (500 nM) or prorenin (10 nM) was added to the apical side of the inserts, and amiloride (10 μM) was added at the end of experiments to calculate amiloride-sensitive sodium current as the difference between total current and amiloride-insensitive current.

[2] = biological target: T1, PRR (Mus musculus, UniProt Q9CYN9); assay: Prorenin-induced pressor response with ICV PRR antagonist peptides in C57BI/6J mice; format: in vivo; set-up: from tissue; host or cells: brain of living C57Bl/6J mice (ICV infusion); details: ICV mouse prorenin 100 ng/ul alone or with peptide 45 ng/ul, 0.3 ul/minute for 10 minutes
T1 sequence (Q9CYN9 18-350): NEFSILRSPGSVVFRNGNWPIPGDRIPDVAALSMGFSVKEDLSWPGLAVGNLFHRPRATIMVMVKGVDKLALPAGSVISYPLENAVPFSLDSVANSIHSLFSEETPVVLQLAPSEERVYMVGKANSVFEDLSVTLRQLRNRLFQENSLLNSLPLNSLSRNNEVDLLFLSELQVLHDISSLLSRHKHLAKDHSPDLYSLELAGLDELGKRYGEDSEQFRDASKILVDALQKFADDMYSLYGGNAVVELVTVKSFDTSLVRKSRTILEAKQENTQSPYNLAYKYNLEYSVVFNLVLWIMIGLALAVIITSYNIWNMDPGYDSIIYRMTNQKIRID
Protocol: C57BI/6J mice (N=5/group) were each implanted with a telemetric probe for BP recording and an intracerebroventricular (ICV) cannula for infusion of mouse prorenin (100 ng/ul), PR10, or PR20 (45 ng/ul) at 0.3 ul/minute for 10 minutes. Mouse prorenin infusion increased the BP (mmHg) in WT mice (ΔMAP: 31.3±1.1); however, the prorenin-induced pressor response was abolished in either PR10 (ΔMAP: 16.9±4.4 vs. prorenin) or PR20 (ΔMAP: 12.7±0.5 vs. prorenin) infused mice.

[3] = test system: PRR; assay: ICV infusion pressor response in WT and neuron-specific PRR knockout (Nefh-PRR) mice, telemetry; format: in vivo, mouse; details: for ΔMAP, pressor response to ICV infusion: Nefh-PRR mice, ICV 100 ng/ul at 0.3 ul/minute for 10 minutes
Protocol: (§1) FIG. 6 is a series of graphs illustrating the pressor response to intracerebroventricular (ICV) infusion of carbachol (FIG. 6A), Ang II (FIG. 6B), renin (FIG. 6C), and prorenin (FIG. 6D) in wild-type (WT) and Nefh-PRR mice. WT and Nefh-PRR mice were implanted with telemetric transmitters and ICV cannula. Two weeks after recovery, mice were ICV infused (0.3 μl/min) with carbachol (100 ng/μl), Ang II (100 ng/μl), Ang II (100 ng/μl), +losartan (10 ng/μl), mouse renin (100 ng/μl), mouse prorenin (100 ng/μl), or mouse prorenin (100 ng/μl) +losartan (10 ug/μl) over 10 minutes. Blood pressure (BP) was recorded in conscious freely moving mice. *P<0.05 vs. WT.
(§2) Neuron-specific PRR knockout mice (Nefh-PRR) and wildtype (WT) littermates (N=5/group) were each implanted with a telemetric probe for blood pressure (BP) recording and an intracerebroventricular (ICV) cannula for infusion of mouse prorenin (100 ng/ul), mouse renin (100 ng/ul), or an Ang II type 1 receptor (AT1R) blocker (losartan, 10 ug/ul) at 0.3 ul/minute for 10 minutes. Mouse prorenin infusion increased the BP (mmHg) in WT mice (ΔMAP: 41±5); however, the prorenin induced pressor response was abolished in Nefh-PRR mice (ΔMAP: 5±1).

[4] = biological target: T1, PRR; assay: as above; format: in vivo; set-up: Neuron-specific PRR knockout mice (Nefh-PRR) and wildtype (WT) littermates (N=5/group) were each implanted with a telemetric probe; from tissue; host or cells: brain of living WT and Nefh-PRR mice (ICV infusion); details: WT mice; ICV 100 ng/ul at 0.3 ul/minute for 10 minutes
Protocol: as §1, §2

Molecule: COc1cc(C(C)=O)ccc1O [apocynin]
- acute activation of ENaC by prorenin [1]: completely abolished

- ΔMAP, prorenin-induced pressor response [2]: 16.9±4.4 mmHg
Molecule: IFDNIISQGVLKEDVF (PRR antagonist PR10)

- ΔMAP, prorenin-induced pressor response [2]: 12.7±0.5 mmHg
Molecule: LPTDTTTFKRIFLKRMPSI (PRR antagonist) [PR20]

Molecule: renin
- Ieq [1]: 1.58+0.19 μA/cm2

Molecule: CCCCc1nc(Cl)c(CO)n1Cc1ccc(-c2ccccc2-c2nn[nH]n2)cc1 [losartan]
- pressor response induced by prorenin or renin ([3]; ICV losartan 10 ug/ul): completely blocked
- second (chronic) phase of prorenin-increased sodium transport / ENaC activity [1]: not
- acute activation of ENaC by prorenin [1]: not

Molecule: COC(=O)[C@@H]1CC2=CC(=O)CC[C@]2(C)[C@@]23O[C@@H]2C[C@@]2(C)[C@@H](CC[C@@]24CCC(=O)O4)[C@H]13 [eplerenone]
- second (chronic) phase of prorenin-increased sodium transport / ENaC activity [1]: effectively blocked
- acute activation of ENaC by prorenin [1]: unaffected

- ΔMAP, prorenin-induced pressor response [2]: 31.3±1.1 mmHg
B1: mouse prorenin: mouse prorenin, ligand of PRR, infused ICV (protein)
chain: LPTRTATFERIPLKKMPSVREILEERGVDMTRLSAEWGVFTKRPSLTNLTSPVVLTNYLNTQYYGEIGIGTPPQTFKVIFDTGSANLWVPSTKCSRLYLACGIHSLYESSDSSSYMENGSDFTIHYGSGRVKGFLSQDSVTVGGITVTQTFGEVTELPLIPFMLAKFDGVLGMGFPAQAVGGVTPVFDHILSQGVLKEEVFSVYYNRGSHLLGGEVVLGGSDPQHYQGNFHYVSISKTDSWQITMKGVSVGSSTLLCEEGCAVVVDTGSSFISAPTSSLKLIMQALGAKEKRIEEYVVNCSQVPTLPDISFDLGGRAYTLSSTDYVLQYPNRRDKLCTLALHAMDIPPPTGPVWVLGATFIRKFYTEFDRHNNRIGFALAR
- ΔMAP, pressor response to ICV infusion [3]: 5±1 mmHg
- ΔMAP, pressor response to ICV infusion [4]: 41±5 mmHg

B2: prorenin: prorenin added at 10 nM to mpkCCD cells; species not stated (protein)
chain: LPTRTATFERIPLKKMPSVREILEERGVDMTRLSAEWGVFTKRPSLTNLTSPVVLTNYLNTQYYGEIGIGTPPQTFKVIFDTGSANLWVPSTKCSRLYLACGIHSLYESSDSSSYMENGSDFTIHYGSGRVKGFLSQDSVTVGGITVTQTFGEVTELPLIPFMLAKFDGVLGMGFPAQAVGGVTPVFDHILSQGVLKEEVFSVYYNRGSHLLGGEVVLGGSDPQHYQGNFHYVSISKTDSWQITMKGVSVGSSTLLCEEGCAVVVDTGSSFISAPTSSLKLIMQALGAKEKRIEEYVVNCSQVPTLPDISFDLGGRAYTLSSTDYVLQYPNRRDKLCTLALHAMDIPPPTGPVWVLGATFIRKFYTEFDRHNNRIGFALAR
- Ieq [1]: 3.16+0.07 μA/cm2

B3: mouse renin: mouse renin, infused ICV (protein, UniProt P06281 72-402, looked up)
Renin-1: SPVVLTNYLNTQYYGEIGIGTPPQTFKVIFDTGSANLWVPSTKCSRLYLACGIHSLYESSDSSSYMENGSDFTIHYGSGRVKGFLSQDSVTVGGITVTQTFGEVTELPLIPFMLAKFDGVLGMGFPAQAVGGVTPVFDHILSQGVLKEEVFSVYYNRGSHLLGGEVVLGGSDPQHYQGNFHYVSISKTDSWQITMKGVSVGSSTLLCEEGCAVVVDTGSSFISAPTSSLKLIMQALGAKEKRIEEYVVNCSQVPTLPDISFDLGGRAYTLSSTDYVLQYPNRRDKLCTLALHAMDIPPPTGPVWVLGATFIRKFYTEFDRHNNRIGFALAR
- ΔMAP, pressor response to ICV infusion [3]: 27±2 mmHg
- ΔMAP, pressor response to ICV infusion [4]: 31±5 mmHg
